Measured values as given in the Human Domainome abundance scans (Beltran et al. 2025).
± gives the uncertainty stated by the source.

Test: abundance fitness (aPCA) (normalised: wild type 0, dead -1); higher = more abundant; growth selection in yeast, the domain comes from the species named
Settings: Homo sapiens
“BAG family molecular chaperone regulator 3 F38E, O95817” showed an abundance fitness of -0.356 ± 0.13. Substance “SAFB-like transcription modulator K45Q, Q9NWH9” has an abundance fitness of -0.099 ± 0.084. With “SAFB-like transcription modulator I56N, Q9NWH9” the abundance fitness was -0.951 ± 0.25. “SAFB-like transcription modulator G61V, Q9NWH9” showed an abundance fitness of -0.39 ± 0.046. Substance “SAFB-like transcription modulator D64C, Q9NWH9” has an abundance fitness of -0.166 ± 0.05. For “SAFB-like transcription modulator L39A, Q9NWH9”, the abundance fitness was -0.498 ± 0.069. “BAG family molecular chaperone regulator 3 Q33M, O95817” gave an abundance fitness of -0.29 ± 0.3. “BAG family molecular chaperone regulator 3 R53H, O95817” gave an abundance fitness of -0.611 ± 0.3. “SAFB-like transcription modulator T42P, Q9NWH9” gave an abundance fitness of -0.729 ± 0.051. “SAFB-like transcription modulator I22G, Q9NWH9” gave an abundance fitness of -0.562 ± 0.044. With “SAFB-like transcription modulator K21E, Q9NWH9” the abundance fitness was -0.195 ± 0.064. With “SAFB-like transcription modulator T23F, Q9NWH9” the abundance fitness was -0.127 ± 0.035. “BAG family molecular chaperone regulator 3 Q11A, O95817” gave an abundance fitness of 0.495 ± 0.34. “BAG family molecular chaperone regulator 3 P55C, O95817” gave an abundance fitness of 0.133 ± 0.29. “BAG family molecular chaperone regulator 3 S14M, O95817” gave an abundance fitness of -0.022 ± 0.2. For “SAFB-like transcription modulator I28V, Q9NWH9”, the abundance fitness was 0.01 ± 0.069. With “SAFB-like transcription modulator I41V, Q9NWH9” the abundance fitness was -0.067 ± 0.063. Substance “SAFB-like transcription modulator D40F, Q9NWH9” has an abundance fitness of -1 ± 0.39. Work on “SAFB-like transcription modulator T23Q, Q9NWH9” yielded an abundance fitness of -0.034 ± 0.046. “SAFB-like transcription modulator R51L, Q9NWH9” showed an abundance fitness of -0.753 ± 0.068. Substance “SAFB-like transcription modulator K35M, Q9NWH9” has an abundance fitness of -0.035 ± 0.079. For “BAG family molecular chaperone regulator 3 W26P, O95817”, the abundance fitness was -0.892 ± 0.39. Substance “BAG family molecular chaperone regulator 3 T34G, O95817” has an abundance fitness of 0.064 ± 0.087. “BAG family molecular chaperone regulator 3 R19S, O95817” gave an abundance fitness of -0.006 ± 0.062. Work on “SAFB-like transcription modulator L30S, Q9NWH9” yielded an abundance fitness of -0.776 ± 0.058. For “BAG family molecular chaperone regulator 3 R53Y, O95817”, the abundance fitness was -0.788 ± 0.14. “SAFB-like transcription modulator D40M, Q9NWH9” gave an abundance fitness of -0.377 ± 0.067. “BAG family molecular chaperone regulator 3 R45P, O95817” gave an abundance fitness of -0.321 ± 0.35. “SAFB-like transcription modulator E67F, Q9NWH9” gave an abundance fitness of -0.041 ± 0.078. Work on “BAG family molecular chaperone regulator 3 R19A, O95817” yielded an abundance fitness of -0.071 ± 0.11. “SAFB-like transcription modulator I49V, Q9NWH9” gave an abundance fitness of -0.079 ± 0.048. With “BAG family molecular chaperone regulator 3 V12Q, O95817” the abundance fitness was 0.065 ± 0.16. In the case of “SAFB-like transcription modulator L48M, Q9NWH9”, the abundance fitness is reported as -0.075 ± 0.04. “BAG family molecular chaperone regulator 3 F38S, O95817” showed an abundance fitness of -0.243 ± 0.069. Substance “BAG family molecular chaperone regulator 3 S14K, O95817” has an abundance fitness of 0.023 ± 0.28. For “SAFB-like transcription modulator R26F, Q9NWH9”, the abundance fitness was -0.268 ± 0.065. In the case of “BAG family molecular chaperone regulator 3 W49C, O95817”, the abundance fitness is reported as -0.634 ± 0.29. With “BAG family molecular chaperone regulator 3 D31T, O95817” the abundance fitness was -0.56 ± 0.18. Work on “BAG family molecular chaperone regulator 3 I28V, O95817” yielded an abundance fitness of 0.068 ± 0.1. “BAG family molecular chaperone regulator 3 T46R, O95817” gave an abundance fitness of -0.225 ± 0.11. Work on “SAFB-like transcription modulator L52V, Q9NWH9” yielded an abundance fitness of -0.412 ± 0.077. Substance “BAG family molecular chaperone regulator 3 P55F, O95817” has an abundance fitness of -0.012 ± 0.13. “SAFB-like transcription modulator V47I, Q9NWH9” gave an abundance fitness of 0.051 ± 0.066. “BAG family molecular chaperone regulator 3 R53M, O95817” showed an abundance fitness of -0.296 ± 0.25. With “SAFB-like transcription modulator N65M, Q9NWH9” the abundance fitness was -0.135 ± 0.055. “SAFB-like transcription modulator Q54V, Q9NWH9” showed an abundance fitness of -0.209 ± 0.078. With “SAFB-like transcription modulator V27Y, Q9NWH9” the abundance fitness was -0.29 ± 0.24. Work on “BAG family molecular chaperone regulator 3 T47Q, O95817” yielded an abundance fitness of -0.741 ± 0.14. With “BAG family molecular chaperone regulator 3 L22W, O95817” the abundance fitness was -0.464 ± 0.083. “SAFB-like transcription modulator Q54M, Q9NWH9” gave an abundance fitness of -0.009 ± 0.1. “BAG family molecular chaperone regulator 3 D51T, O95817” showed an abundance fitness of 0.29 ± 0.25. For “BAG family molecular chaperone regulator 3 R53W, O95817”, the abundance fitness was -0.861 ± 0.14. With “BAG family molecular chaperone regulator 3 K29T, O95817” the abundance fitness was -0.212 ± 0.16. For “BAG family molecular chaperone regulator 3 T34E, O95817”, the abundance fitness was -0.183 ± 0.19. For “BAG family molecular chaperone regulator 3 R19F, O95817”, the abundance fitness was -0.743 ± 0.32. Work on “BAG family molecular chaperone regulator 3 G17D, O95817” yielded an abundance fitness of 0.825 ± 0.07. “BAG family molecular chaperone regulator 3 P55E, O95817” gave an abundance fitness of -0.8 ± 0.36. “SAFB-like transcription modulator T46E, Q9NWH9” gave an abundance fitness of 0.004 ± 0.068. “SAFB-like transcription modulator E58L, Q9NWH9” gave an abundance fitness of -0.036 ± 0.036. “SAFB-like transcription modulator D64M, Q9NWH9” gave an abundance fitness of -0.016 ± 0.04. “BAG family molecular chaperone regulator 3 P32A, O95817” gave an abundance fitness of -0.735 ± 0.17. “BAG family molecular chaperone regulator 3 T47R, O95817” gave an abundance fitness of -0.728 ± 0.13. Substance “BAG family molecular chaperone regulator 3 W26Q, O95817” has an abundance fitness of -0.641 ± 0.33. With “SAFB-like transcription modulator L39H, Q9NWH9” the abundance fitness was -0.275 ± 0.081. With “SAFB-like transcription modulator R51M, Q9NWH9” the abundance fitness was -0.506 ± 0.051. “SAFB-like transcription modulator K53S, Q9NWH9” showed an abundance fitness of -0.141 ± 0.043. “SAFB-like transcription modulator T42G, Q9NWH9” showed an abundance fitness of -0.247 ± 0.085. In the case of “BAG family molecular chaperone regulator 3 W49Q, O95817”, the abundance fitness is reported as -0.764 ± 0.42. “SAFB-like transcription modulator T46H, Q9NWH9” showed an abundance fitness of 0.011 ± 0.071. In the case of “SAFB-like transcription modulator V44Y, Q9NWH9”, the abundance fitness is reported as -0.258 ± 0.081. “BAG family molecular chaperone regulator 3 G17T, O95817” showed an abundance fitness of 0.943 ± 0.083. With “BAG family molecular chaperone regulator 3 E27S, O95817” the abundance fitness was -0.596 ± 0.14. In the case of “BAG family molecular chaperone regulator 3 G15W, O95817”, the abundance fitness is reported as -0.481 ± 0.19. For “SAFB-like transcription modulator L48T, Q9NWH9”, the abundance fitness was -0.538 ± 0.043. “SAFB-like transcription modulator I66W, Q9NWH9” gave an abundance fitness of -0.451 ± 0.18. For “BAG family molecular chaperone regulator 3 D18R, O95817”, the abundance fitness was -0.116 ± 0.09. Work on “SAFB-like transcription modulator E33V, Q9NWH9” yielded an abundance fitness of -0.917 ± 0.094. With “BAG family molecular chaperone regulator 3 D18F, O95817” the abundance fitness was -0.343 ± 0.23. “SAFB-like transcription modulator N65Y, Q9NWH9” showed an abundance fitness of -0.191 ± 0.065. Substance “SAFB-like transcription modulator L25F, Q9NWH9” has an abundance fitness of -0.312 ± 0.061. Work on “BAG family molecular chaperone regulator 3 V54D, O95817” yielded an abundance fitness of -0.08 ± 0.23. Substance “BAG family molecular chaperone regulator 3 P21W, O95817” has an abundance fitness of -0.543 ± 0.086. “BAG family molecular chaperone regulator 3 D51S, O95817” gave an abundance fitness of -0.383 ± 0.14. “SAFB-like transcription modulator E59G, Q9NWH9” showed an abundance fitness of -0.226 ± 0.044. Substance “SAFB-like transcription modulator D29I, Q9NWH9” has an abundance fitness of -1.09 ± 0.43. In the case of “SAFB-like transcription modulator D24N, Q9NWH9”, the abundance fitness is reported as -0.098 ± 0.034. In the case of “BAG family molecular chaperone regulator 3 P24C, O95817”, the abundance fitness is reported as -0.489 ± 0.29. Work on “SAFB-like transcription modulator E67P, Q9NWH9” yielded an abundance fitness of -0.155 ± 0.089. Substance “SAFB-like transcription modulator T23W, Q9NWH9” has an abundance fitness of -0.175 ± 0.047. Work on “BAG family molecular chaperone regulator 3 F39N, O95817” yielded an abundance fitness of -0.442 ± 0.29. Work on “BAG family molecular chaperone regulator 3 G17P, O95817” yielded an abundance fitness of 1.15 ± 0.12. In the case of “BAG family molecular chaperone regulator 3 P37K, O95817”, the abundance fitness is reported as 0.937 ± 0.12. For “SAFB-like transcription modulator K45Y, Q9NWH9”, the abundance fitness was -0.005 ± 0.085. Work on “SAFB-like transcription modulator S50G, Q9NWH9” yielded an abundance fitness of 0.028 ± 0.039. For “SAFB-like transcription modulator D62E, Q9NWH9”, the abundance fitness was -0.397 ± 0.047. With “SAFB-like transcription modulator L48D, Q9NWH9” the abundance fitness was -0.274 ± 0.071. “SAFB-like transcription modulator E33S, Q9NWH9” gave an abundance fitness of -0.353 ± 0.078.
